Assay results: paper PMC6448596 (Cell reports, 2019)

Biological target: His-SUMO-WDR5(22–334) (human, UniProt P61964 22-334)
Test: AlphaScreen or HTRF

ARTEVHLRKS [10-mer-Thr-FAM (ARTEVHLRKS-(Ahx-Ahx)(Lys-(5-FAM)))]
binding result: binds
